# Experimental data published in the nanobody polyreactivity screen of Harvey et al. (2022).
# Test: yeast display, Sf9 membrane polyspecificity reagent, FACS + sequencing; frameworks hold sequencing errors
# How it was run: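 Nanobodies came from a synthetic yeast display library in Saccharomyces cerevisiae BJ5465, induced with galactose for 36–48 hours and stained for 1 hour at 4 °C with 10% biotinylated, detergent-solubilized Sf9 membrane reagent. Cells were enriched on streptavidin microbeads and then FACS-sorted, with low and high (top ~1%) gates set on anti-HA fluorescence for expression and streptavidin fluorescence for reagent binding. Each polyreactivity label reflects the gate a clone came from. Genes were amplified by colony PCR, sequenced by MiSeq 2 × 250 and filtered by CDR length.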
row,Sequence,polyreactivity (PSR sort gate)
1,QVQLVESGGGLVQAGGSLRLSCAASGFIFSENAMGLYRPAPGKERELVAAISDAGGSTYYADSVKGRFTISRDNAKNTVYLQMNSLKPEDTAVYYCNAVYHPKGPSGYGYWGQGTQVTVSS,low polyreactivity
2,QVQLVESGGGLVQAGGSLRLSCAASGFIFSFYVMGWYRQAPGKERELVAAISTSGASTYYADSVKGRFTISRDNAKNTVYLQMTSLKPEDTAVYYCNVVYRYGGYNYWGQGTQVTVSS,high polyreactivity
3,QVQLVESGGGLVQAGGSLRLSCAASGFIFSIYAMGWYRQAPGKERELVAAISKSGGRTYYADSVKGRFTISRDNAKNTVYLQMNSLKPEDTAVYYCAVDSYYKYDYWGQGTQVTVSS,high polyreactivity
4,QVQLVESGGGLVQAGGSLRLSCAASGFIFSIYAMGWYRQAPGKERELVAGIDNGGGTYYADSVKGRFTISRDNAKNTVYLQMNSLKPEDTAVYYCAADTYSIGELYDYWGQGTQVTVSS,low polyreactivity
5,QVQLVESGGGLVQAGGSLRLSCAASGFIFSIYAMGWYRQAPGKERELVAGIDNGGGTYYADSVKGRFTISRDNAKNTVYLQMNSLKPEDTAVYYCDLGSTTMDYWGQGTQVTVSS,low polyreactivity
6,QVQLVESGGGLVQAGGSLRLSCAASGFIFSLYAMGRYRQATGKERELVAVITWSDGRTYYADSVKGRFTISRDNAKNTVYLQMNSLKPEDTAVYYCAAADWITEYDYWGQGTQVTVSS,low polyreactivity
7,QVQLVESGGGLVQAGGSLRLSCAASGFIFSLYAMGWYRQAPGKERELVAAISKRGGSTNYADSVKGRFTISRDNAKNNVYLQMNSLKPEDTAVYYCAKARPGFLYDHWGQGTQVTVSS,high polyreactivity
8,QVQLVESGGGLVQAGGSLRLSCAASGFIFSNNAMGWYRQAPGKERELVAAISGRGGSTYYADSVKGRFTISRDNAKNTVYLQMNSLKPEDTAVYYCNALYTYSYSRFDYWGEGTQVTVSS,low polyreactivity
9,QVQLVESGGGLVQAGGSLRLSCAASGFIFSNNAMGWYRQAPGKERELVAAISKSGGGTSYADSVKGRFTISRDNAKNTVYLQMKSLNPEDSGVYYCAARFSQFRVDFWGQGTQVTVSS,high polyreactivity
10,QVQLVESGGGLVQAGGSLRLSCAASGFIFSRNAMGWYRHAPGKERELVAAISLRGGSTYYADSVKGRFTISRDNAKNTVYLQMNSLKPEDTAVYYCAAPLFSGYDYWGQGTQVTVSS,low polyreactivity
11,QVQLVESGGGLVQAGGSLRLSCAASGFIFSRNAMGWYRQAPGKERELVAAISSGGGTDYADSVKGRFTISRDNAKNTVYLQMNSLQPEDTAVYYCAASYFPGWKHSLDDYWGQGTQVTVSS,low polyreactivity
12,QVQLVESGGGLVQAGGSLRLSCAASGFIFSRNTMGWYRQAPGKERELVAAISRGGGSTYYADSVKGRFTISRDNAKNTVYLQMNSLKPEDTAVYYCNTRIVAAGRYDYWGQGTQVTVSS,high polyreactivity
13,QVQLVESGGGLVQAGGSLRLSCAASGFIFSRYAMGWYRQAPGKERELVAAISSRGGSTYYADSVKGRFTISRDNAKNTVYLQMNSLKPEDTAVYYCNVDPRYSLTPPMDYWGQGTQVTVSS,high polyreactivity
14,QVQLVESGGGLVQAGGSLRLSCAASGFIFSRYTMGWYRQAPGKERELVAAISRRGGNTYYADSVKGRFTISRDNGKNTVYLLMNSLKPEDTAVYYFAADSSYFKDEYWGQGTQVTVSS,low polyreactivity
15,QVQLVESGGGLVQAGGSLRLSCAASGFIFSRYVMGWYRQAPGKERELVAVISYRGGSTYYADSVKGRFTISRDNAKNTVYVQMNSLKPEDTAVYYCNADTIPDGEDRYDYWGHGTQVTVSS,low polyreactivity
16,QVQLVESGGGLVQAGGSLRLSCAASGFIFSSYAMGWYRQAPGKEREFVAVISTGGGSTYYADSVKGRFTLSRDNAKNTVYLQMISLKPEDTAVYYCAAKLYDSGGRYWYDYWGQGTQVTVSS,high polyreactivity
17,QVQLVESGGGLVQAGGSLRLSCAASGFIFSSYAMGWYRQAPGKERELVASTSRRAGRTYYADSVKGRFTISRDNAKNTVYVQMNSLKPEDSAVYYCAAEARVGYHFQILDYWGQGTQVTVSS,high polyreactivity
